Results: the supplement of paper PMC9170038

Tested on: MS2 coat protein
Experiment: apparent KD of MS2 coat protein; designed switch direction (-1 OFF switch, 1 ON switch): 1; higher = weaker reporter binding
Method in brief: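 Designed RNA switches were transcribed on Illumina chips by stalled E. coli RNA polymerase and titrated with SNAP-549-labelled MS2 coat protein from 0.7 or 1.5 nM, doubling to 3 µM. Step length ran from 0.8–1.5 h at the lowest concentration to 10–20 min at the highest. The apparent KD is the median over clusters for each design, from curve-fitted normalised cluster fluorescence.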

[1] = Eterna round: R95, input ligand: FMN 200 uM
[2] = Eterna round: R95, input ligand: microRNA oligo, concentration not stated
[3] = Eterna round: R95, input ligand: none
[4] = input ligand: microRNA oligo, concentration not stated

Sequence | apparent KD of MS2 coat protein [1] [nM] | apparent KD of MS2 coat protein [2] [nM] | apparent KD of MS2 coat protein [3] [nM] | apparent KD of MS2 coat protein (input ligand: FMN 200 uM) [nM] | apparent KD of MS2 coat protein [4] [nM] | apparent KD of MS2 coat protein (input ligand: none) [nM]
AACAAUCUAUCUGAGGAUAUCAUGAAAUAAACAUGAGGAUCACCCAUGUGCAUGAAAACUGCAUAUGAGAAGGCAGAUAGAUUGA [salish99_ss2_r3_038] (puzzle: Same State 2) | 54.8 | 415 | 472 |  |  | 
GUGGUCAGACAUGAGGAUCACCCAUGUGGAAUAAAUAAGGUUUAGGAUAUGGAAUAUAGGAUAUACCAGAAGGAAAGGUUGGUG (Eterna round: R96, puzzle: Same State NG 3) |  |  |  | 176 | 75.4 | 133
UGUUGUAUUACAGGAUAUCUAUUGUUUUUAUGUAGAGAAGGGUAUUCACAUGAGGAUCACCCAUGUAUAUACGAGGAAGUUGUG [JMF's solution 85] (Eterna round: R96, puzzle: Same State NG 1) |  |  |  | 53.2 | 36.6 | 48.8
GGAGCCUGCACUGAGGAUAUUCAUAUUUAAACAUGAGGAUCACCCAUGUAGGCCAGAAGGCCUUGGGAGAAGGCAGGUCGGCUCG [salish99_ss2_r3_083] (puzzle: Same State 2) | 35.3 | 372 | 780 |  |  | 
AGUCCAGCCUGAGCUGGACAAAAGCAUGUACAUGAGGAUCACCCAUGUCAUGUACAAGCUUUUUGCACGUCUUAAAA [Mat - hsa-mir-208a - Mod of JL - D13] (puzzle: Sensor for hsa-mir-208a) | 1120 | 16.4 | 542 |  |  | 
UGACACACGGCAGGAUAUCGAUUCCAAAGGAAUCGAGAAGGGCCUCAUGUCGUGGAAACGUGACAUGAGGAUCACCCAUGUCGC [Omei SS(NG)1 Cv16] (Eterna round: R96, puzzle: Same State NG 1) |  |  |  | 65 | 3.72 | 64.2
UUAGUCAUGUAAGGAUAUGCAGCCGAAACGGCUGCAGAAGGUACUAUAAUUACAUGAGGAUCACCCAUGUUAUAAAAUUUAUAU [Mat - Same State NG 1 - JL mod - D62] (Eterna round: R96, puzzle: Same State NG 1) |  |  |  | 23.4 | 28.7 | 41.2
AAGAAAUCCGCAGGAUAUCCUAAGCCGGGCUUAGGAGAAGGGUGGCCACAUGAGGAUCACCCAUGUAAAAGCUGAAUCACAGCC [Aerququ] (Eterna round: R96, puzzle: Same State NG 1) |  |  |  | 237 | 388 | 523
AGUCCAGCGAAAGCUGGACAAAAGCAUGUACAUGAGGAUCACCCAUGUUCGUGUACAAGCUUUUUGCUCGUCUUAAA [JL mod - D95 - 5] (puzzle: Sensor for hsa-mir-208a) | 536 | 14.6 | 554 |  |  | 
ACAUAGGUUUCAGGAUAUGGGUAAAUUCCCAACAUGAGGAUCACCCAUGUCCGUUGGGAUAACAUCCAGAAGGGAAGCCACAUA [MOD2 Eternabot Solution 1 (Score 87.5)] (Eterna round: R96, puzzle: Same State NG 2) |  |  |  | 215 | 88.1 | 390
GGUGAGAGAGUCAAGGAUAUGAAAGGAGAGACAUGAGGAUCACCCAUGUAAGAGAGAGAGGAGAGUUAGAAGGUGAAGAGAGUGG [Altered State 2-24 - Jieux - Same State 2] (puzzle: Same State 2) | 42.7 | 39.5 | 64.7 |  |  | 
AAAGAAAACAUAGGAUAUGUAACAUGAGGAUCACCCAUGUGUAGCCCGUAAGGGAUGACGGAUGGACAGAAGGAUGGUCUCAGG [Default title] (Eterna round: R96, puzzle: Same State NG 2) |  |  |  | 403 | 155 | 104
AGUCCAGCAAGAGCUGGACAAAAGCAUGUACAUGAGGAUCACCCAUGUUCAUGUACAAGCUUUUUGCUCGUCAAAAG [Mat - hsa-mir-208a - Mod of JL - 72] (puzzle: Sensor for hsa-mir-208a) | 216 | 19.9 | 318 |  |  | 
AACAAGCACAUGAGGAUCACCCAUGUGAGAAUAAAACCCUCAUAGGAUAUCCGCGGUUAACUCCCGGAGAAGGGUGAGACUCCU [Edtiedus] (Eterna round: R96, puzzle: Same State NG 3) |  |  |  | 266 | 429 | 390
AUAAAACAUGAGGAUCACCCAUGUCAACUAAGUCGAGGAUAUGGGCAAAUAAAAUAAGAACCAGAAGGCGAAUAAU [salish99_ss1_r3_041] (puzzle: Same State 1) | 34.3 | 322 | 361 |  |  | 
UUAAUUAAUUAAUUAUACAUGAGGAUCACCCAUGUAAGUGAUCAGGAUAUCAGCUCGAUUAGAGCUGAGAAGGGAUACAUGUAA [SSNG3/13-A2] (Eterna round: R96, puzzle: Same State NG 3) |  |  |  | 142 | 164 | 191
GCGAGCGUACUUGCUACAUGAGGAUCACCCAUGUUCAUUGGACAGGAUAUGGUACCGUUUCGGUACCAGAAGGGUUCAUCAUGU [JL SSNG3 3.73] (Eterna round: R96, puzzle: Same State NG 3) |  |  |  | 1190 | 26.6 | 585
AAUUAUUAACAUGAGGAUCACCCAUGUAUUAUUAUUAACAAGCUUUGCUCUACAUGGGUGCUCGUCUUAUUUAUUAA [AthenaIerokomos] (puzzle: Sensor for hsa-mir-208a version 2) | 13.7 | 68.6 | 32.5 |  |  | 
UAUAAACAUGAGGAUCACCCAUGUAAUAAUAUGGGAGGAUAUCAGAAUGUAUUUAUGUAAUGAGAAGGCCUAAUAU [Mat - Same State 1 - Mod of Eli - D69] (puzzle: Same State 1) | 50.9 | 122 | 372 |  |  | 
GGAGAACAUGAGGAUCACCCAUGUGGAUGAGCGCUAGGAUAUGCGGGAGGGUGAAGAGAAGCAGAAGGAGUAGAUA [JR_SS1_Sub034] (puzzle: Same State 1) | 63.9 | 99.6 | 180 |  |  | 
AGUCCAGCCUAAGCUGGACAAAAGCAUGUACAUGAGGAUCACCCAUGUUCAUGUACAAGCUUUUUGCUCGUCAAAAG [Mat - hsa-mir-208a - Mod of JL - 68] (puzzle: Sensor for hsa-mir-208a) | 194 | 19.6 | 242 |  |  | 
GUGGUCAGACAUGAGGAUCACCCAUGUGGAAUAAAUAACGGACAGGAUAUAGAAUAUAGGAUAUACUAGAAGGGUUGAUUGGUG (Eterna round: R96, puzzle: Same State NG 3) |  |  |  |  | 45.1 | 
AUUUAACAAGCUUUUUGCUCGUCUUAUAAACAUGAGGAUCACCCAUGUAAUAGCGUGAGAGUAAUUAUAUAAAUAAU [JMF 86] (puzzle: Sensor for hsa-mir-208a) | 16.4 | 43 | 15.4 |  |  | 
